Assay results: US20220162320A1 (published 2022)

Biological target: HLA-PEPTIDE target G8: HLA-A*02:01_…, recombinant soluble complex (human, enzymatically biotinylated (BirA) for screening and BLI)
Assay: phage display, scFv ELISA on pHLA against negative control pHLAs

binding result | Binder
binds | scFv G8(1C01) (scFv, V domains shown) VH: QVQLVQSGAEVKKPGASVKVSCKASGGTFSSHAISWVRQAPGQGLEWMGVIIPSGGTSYTQKFQGRVTMTRDTSTSTVYMELSSLRSEDTAVYYCARGDYYDSSGYYFPVYFDYWGQGTLVTVSS VL: DIQMTQSPSSLSASVGDRVTITCRASQNIYTYLNWYQQKPGKAPKLLIYDASNLETGVPSRFSGSGSGTDFTLTISSLQPEDFATYYCQQANGFPLTFGGGTKVEIK
binds | scFv G8(5F02) (scFv, V domains shown) VH: QVQLVQSGAEVKKPGASVKVSCKASGYTFTGYYIHWVRQAPGQGLEWMGVINPSGGSTTYAQKLQGRVTMTRDTSTSTVYMELSSLRSEDTAVYYCARDRDSSWTYYYYGMDVWGQGTTVTVSS VL: EIVMTQSPATLSVSPGERATLSCRASQSVGNSLAWYQQKPGQAPRLLIYGASTRATGIPARFSGSGSGTEFTLTISSLQSEDFAVYYCQQYGSSPYTFGQGTKVEIK
binds | scFv G8(4F05) (scFv, V domains shown) VH: QVQLVQSGAEVKKPGASVKVSCKASGYTFSNMYLHWVRQAPGQGLEWMGWINPNTGDTNYAQTFQGRVTMTRDTSTSTVYMELSSLRSEDTAVYYCARGLYGDYFLYYGMDVWGQGTKVTVSS VL: DIQMTQSPSSLSASVGDRVTITCRASQGISNYLAWYQQKPGKAPKLLIYAASTLQSGVPSRFSGSGSGTDFTLTISSLQPEDFATYYCQQSYSTPLTFGGGTKVEIK
binds | scFv G8(5C03) (scFv, V domains shown) VH: QVQLVQSGAEVKKPGASVKVSCKASGYTFTSYYMHWVRQAPGQGLEWMGWMNPNSGNTGYAQKFQGRVTMTRDTSTSTVYMELSSLRSEDTAVYYCARGLLGFGEFLTYGMDVWGQGTLVTVSS VL: DIQMTQSPSSLSASVGDRVTITCRASQGISNWLAWYQQKPGKAPKLLIYAASTLQSGVPSRFSGSGSGTDFTLTISSLQPEDFATYYCQQTYSTPWTFGQGTKLEIK
binds | scFv G8(5G08) (scFv, V domains shown) VH: QVQLVQSGAEVKKPGASVKVSCKASGYTFTSNYMHWVRQAPGQGLEWMGWMNPNSGNTGYAQKFQGRVTMTRDTSTSTVYMELSSLRSEDTAVYYCARGLYGDYFLYYGMDVWGQGTTVTVSS VL: not shown

Biological target: HLA-PEPTIDE target G10: HLA-A*01:01_…, recombinant soluble complex (human, enzymatically biotinylated (BirA))
Assay: as above

Binder | binding result
scFv G10(5A08) (scFv, V domains shown, also called G10(5A8); scFv-G10-P5A08) VH: QVQLVQSGAEVKKPGSSVKVSCKASGGTFNNFAISWVRQAPGQGLEWMGGIIPIFDATNYAQKFQGRVTFTADESTSTAYMELSSLRSEDTAVYYCARGEYSSGFFFVGWFDLWGRGTQVTVSS VL: not shown | binds
scFv G10(2G11) (scFv, V domains shown) VH: QVQLVQSGAEVKKPGASVKVSCKASGGTFSTHDINWVRQAPGQGLEWMGVINPSGGSAIYAQKFQGRVTMTRDTSTSTVYMELSSLRSEDTAVYYCARDRGYSYGYFDYWGQGTLVTVSS VL: DIQMTQSPSSLSASVGDRVTITCRASQDISRYLAWYQQKPGKAPKLLIYDASNLETGVPSRFSGSGSGTDFTLTISSLQPEDFATYYCQQANSFPRTFGQGTKVEIK | binds
scFv G10(5C08) (scFv, V domains shown) VH: QVQLVQSGAEVKKPGASVKVSCKASGYNFTGYYMHWVRQAPGQGLEWMGIIAPSDGSTNYAQKFQGRVTMTRDTSTSTVYMELSSLRSEDTAVYYCARETGDDAFDIWGQGTMVTVSS VL: not shown | binds

Continued, values first:

binding result | Binder
binds | scFv G10(4D10) (scFv, V domains shown) VH: QVQLVQSGAEVKKPGASVKVSCKASGYTFTGYYLHWVRQAPGQGLEWMGMIGPSDGSTSYAQKFQGRVTMTRDTSTSTVYMELSSLRSEDTAVYYCARDGDAFDIWGQGTMVTVSS VL: DIQMTQSPSSLSASVGDRVTITCRASQGISSWLAWYQQKPGKAPKLLIYDASNLETGVPSRFSGSGSGTDFTLTISSLQPEDFATYYCQQSYSTPLTFGGGTKVEIK
binds | scFv G10(3E04) (scFv, V domains shown) VH: QVQLVQSGAEVKKPGASVKVSCKASGNTFIGYYVHWVRQAPGQGLEWVGIINPNGGSISYAQKFQGRVTMTRDTSTSTVYMELSSLRSEDTAVYYCARGSGDPNYYYYYGLDVWGQGTTVTVSS VL: DIQMTQSPSSLSASVGDRVTITCQASQDISNYLNWYQQKPGKAPKLLIYAASNLQSGVPSRFSGSGSGTDFTLTISSLQPEDFATYYCQQANSLPYTFGQGTKVEIK
binds | scFv G10(1F06) (scFv, V domains shown, also called G10(1F6)) VH: QVQLVQSGAEVKKPGASVKVSCKASGYTFIGYYMHWVRQAPGQGLEWMGMIGPSDGSTSYAQKFQGRVTMTRDTSTSTVYMELSSLRSEDTAVYYCARDSSGLDPWGQGTLVTVSS VL: DIQMTQSPSSLSASVGDRVTITCRASQSISNYLNWYQQKPGKAPKLLIYKASSLESGVPSRFSGSGSGTDFTLTISSLQPEDFATYYCQQSYIIPYTFGQGTKLEIK
binds | scFv G10(1H01) (scFv, V domains shown) VH: QVQLVQSGAEVKKPGASVKVSCKASGYTFTGYYMHWVRQAPGQGLEWMGMIGPSDGSTSYAQKFQGRVTMTRDTSTSTVYMELSSLRSEDTAVYYCARGVGNLDYWGQGTLVTVSS VL: DIQMTQSPSSLSASVGDRVTITCRASQSISNYLNWYQQKPGKAPKLLIYAASSLQSGVPSRFSGSGSGTDFTLTISSLQPEDFATYYCHQTYSTPLTFGQGTKVEIK
binds | scFv G10(1A07) (scFv, V domains shown) VH: EVQLLESGGGLVKPGGSLRLSCAASGFTFSSYWMSWVRQAPGKGLEWVSGISARSGRTYYADSVKGRFTISRDDSKNTLYLQMNSLKTEDTAVYYCARDQDTIFGVVITWFDPWGQGTLVTVSS VL: DIQMTQSPSSLSASVGDRVTITCRASQGISNYLAWYQQKPGKAPKLLIYAASSLQGGVPSRFSGSGSGTDFTLTISSLQPEDFATYYCQQYFTTPYTFGQGTKLEIK
binds | scFv G10(2C04) (scFv, V domains shown) VH: QVQLVQSGAEVKKPGASVKVSCKASGGTFSNSIINWVRQAPGQGLEWMGWMNPNSGNTNYAQKFQGRVTMTRDTSTSTVYMELSSLRSEDTAVYYCAREQWPSYWYFDLWGRGTLVTVSS VL: not shown
binds | scFv G10(1E12) (scFv, V domains shown) VH: QVQLVQSGAEVKKPGASVKVSCKASGYIFTGYYMHWVRQAPGQGLEWMGMIGPSDGSTSYAQKFQGRVTMTRDTSTSTVYMELSSLRSEDTAVYYCAREDDSMDVWGKGTTVTVSS VL: not shown
binds | scFv G10(4D04) (scFv, V domains shown) VH: QVQLVQSGAEVKKPGASVKVSCKASGYTFTGYYVHWVRQAPGQGLEWMGIIAPSDGSTNYAQKFQGRVTMTRDTSTSTVYMELSSLRSEDTAVYYCARDPGGYMDVWGKGTTVTVSS VL: DIQMTQSPSSLSASVGDRVTITCRASQSISSYLAWYQQKPGKAPKLLIYDASKLETGVPSRFSGSGSGTDFTLTISSLQPEDFATYYCQQSYGVPTFGQGTKLEIK

Biological target: T1, HLA-PEPTIDE target G2: HLA-A*01:01_…, recombinant soluble complex (human, enzymatically biotinylated (BirA))
T1 construct: also called G2-pHLA
Assay: BLI, antibody from 100 nM in 1:2 steps, 1:1 model; apparent KD

Kd [nM] | Binder
1.27 | 4-G2(1H11)-OKT3 (bispecific antibody, human IgG1, kappa, N297Q, also called format #4 (scFv/scFv-Fab): scFv G2(1H11), Fab OKT3) not shown heavy: not shown light: QIVLTQSPAIMSASPGEKVTMTCSASSSVSYMNWYQQKSGTSPKRWIYDTSKLASGVPAHFRGSGSGTSYSLTISGMEAEDAATYYCQQWSSNPFTFGSGTKLEINRTVAAPSVFIFPPSDEQLKSGTASVVCLLNNFYPREAKVQWKVDNALQSGNSQESVTEQDSKDSTYSLSSTLTLSKADYEKHKVYACEVTHQGLSSPVTKSFNRGEC

Biological target: HLA-A*02:01 (alpha chain with beta-2 microglobulin), recombinant (human)
Assay: conditional ligand exchange, stability ELISA

binding result | Binder
binds | LLASSILCA (also called G7 peptide) [peptide LLASSILCA]
